# Measurements published in article PMC3118792.
# Biological target: mixture of human tenascin and human fibronectin matrix proteins (human)
# Experiment: SPR; BIAcore X, CM4 chip with an amine-coupled mixture of human tenascin and human fibronectin (4100 RU); samples injected at 1 µM in HBS (10 mM HEPES, 150 mM NaCl, 3 mM EDTA, 0.05% P20, pH 7.4), 5 µl/minute, 25°C, 1 minute, then 1 minute dissociation; reference cell subtracted
row,Substance,response (RU)
1,AvidinOX (from UniProt P02701 25-152),> 2000
2,avidin (from UniProt P02701 25-152) (natural protein),30
